Assays:
Assay in all cases: peptide array
Peptide_014 = target: T1, Peptide_014 (human)
T1 peptide: AKSTPTAEDVTAPLV
Method in brief: (§1)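 Overlapping 15-mer peptides (5-aa offset) spanning human 2N4R Tau spotted in triplicate on slides; antibodies bound 2 h at room temperature in 3% BSA-TBST (chimeric IgG 5 μg/mL; mouse IgG 30 μg/mL). Detection 1 h with fluorescent anti-human (568 nm) or anti-mouse (647 nm) secondary; fluorescence imaging aligned to array map.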

Peptide_031 = target: T2, Peptide_031 (human)
T2 peptide: IATPRGAAPPGQKGQ
Method in brief: as §1

Peptide_028 = target: T3, Peptide_028 (human)
T3 peptide: GSDDKKAKGADGKTK
Method in brief: as §1

Peptide_080 = target: T4, Peptide_080 (human)
T4 peptide: SPVVSGDTSPRHLSN
Method in brief: as §1

Peptide_036 = target: T5, Peptide_036 (human)
T5 peptide: PPAPKTPPSSGEPPK
Method in brief: as §1

Peptide_061 = target: T6, Peptide_061 (human)
T6 peptide: PGGGSVQIVYKPVDL
Method in brief: as §1

Peptide_008 = target: T7, Peptide_008 (human)
T7 peptide: EGDTDAGLKESPLQT
Method in brief: as §1

Peptide_009 = target: T8, Peptide_009 (human)
T8 peptide: AGLKESPLQTPTEDG
Method in brief: as §1

Peptide_052 = target: T9, Peptide_052 (human)
T9 peptide: VKSKIGSTENLKHQP
Method in brief: as §1

Peptide_037 = target: T10, Peptide_037 (human)
T10 peptide: TPPSSGEPPKSGDRS
Method in brief: as §1

Peptide_047 = target: T11, Peptide_047 (human)
T11 peptide: TPPKSPSSAKSRLQT
Method in brief: as §1

Peptide_058 = target: T12, Peptide_058 (human)
T12 peptide: NVQSKCGSKDNIKHV
Method in brief: as §1

Peptide_086 = target: T13, Peptide_086 (human)
T13 peptide: ATLADEVSASLAKQG
Method in brief: as §1

Peptide_038 = target: T14, Peptide_038 (human)
T14 peptide: GEPPKSGDRSGYSSP
Method in brief: as §1

Peptide_020 = target: T15, Peptide_020 (human)
T15 peptide: EIPEGTTAEEAGIGD
Method in brief: as §1

Peptide_072 = target: T16, Peptide_072 (human)
T16 peptide: SLDNITHVPGGGNKK
Method in brief: as §1

Peptide_074 = target: T17, Peptide_074 (human)
T17 peptide: GGNKKIETHKLTFRE
Method in brief: as §1

Peptide_059 = target: T18, Peptide_059 (human)
T18 peptide: CGSKDNIKHVPGGGS
Method in brief: as §1

Peptide_063 = target: T19, Peptide_063 (human)
T19 peptide: KPVDLSKVTSKCGSL
Method in brief: as §1

Peptide_066 = target: T20, Peptide_066 (human)
T20 peptide: GNIHHKPGGGQVEVK
Method in brief: as §1

Peptide_067 = target: T21, Peptide_067 (human)
T21 peptide: KPGGGQVEVKSEKLD
Method in brief: as §1

Peptide_069 = target: T22, Peptide_069 (human)
T22 peptide: SEKLDFKDRVQSKIG
Method in brief: as §1

Peptide_075 = target: T23, Peptide_075 (human)
T23 peptide: IETHKLTFRENAKAK
Method in brief: as §1

Peptide_034 = target: T24, Peptide_034 (human)
T24 peptide: ANATRIPAKTPPAPK
Method in brief: as §1

Peptide_060 = target: T25, Peptide_060 (human)
T25 peptide: NIKHVPGGGSVQIVY
Method in brief: as §1

Peptide_055 = target: T26, Peptide_055 (human)
T26 peptide: GGGKVQIINKKLDLS
Method in brief: as §1

Peptide_083 = target: T27, Peptide_083 (human)
T27 peptide: VSSTGSIDMVDSPQL
Method in brief: as §1

Peptide_016 = target: T28, Peptide_016 (human)
T28 peptide: TAPLVDEGAPGKQAA
Method in brief: as §1

Peptide_033 = target: T29, Peptide_033 (human)
T29 peptide: GQKGQANATRIPAKT
Method in brief: as §1

Peptide_053 = target: T30, Peptide_053 (human)
T30 peptide: GSTENLKHQPGGGKV
Method in brief: as §1

Peptide_078 = target: T31, Peptide_078 (human)
T31 peptide: TDHGAEIVYKSPVVS
Method in brief: as §1

Peptide_018 = target: T32, Peptide_018 (human)
T32 peptide: GKQAAAQPHTEIPEG
Method in brief: as §1

Peptide_079 = target: T33, Peptide_079 (human)
T33 peptide: EIVYKSPVVSGDTSP
Method in brief: as §1

B1: chimeric IgG clone 1G7 (antibody, V domains shown)
VH: EVQLQQSGAEVVRPGASVKLSCTTSGFNIKDSLMHWLKQRPEQGLEWIGWIDPEDGETKYAPKFQDKATITADTSSNTAYLQLSSLTSGDTAIYYCARRDWEGPWGQGTLVTVSA
VL: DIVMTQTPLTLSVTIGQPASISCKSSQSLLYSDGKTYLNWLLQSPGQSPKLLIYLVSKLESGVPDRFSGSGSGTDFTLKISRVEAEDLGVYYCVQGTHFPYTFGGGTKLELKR
notes: mouse-human chimeric IgG from HEK293
B1: no binding (tested: 5 ug/mL) (Peptide_014); no binding (tested: 5 ug/mL) (Peptide_031); no binding (tested: 5 ug/mL) (Peptide_028). B1: no binding (tested: 5 ug/mL) (Peptide_080); no binding (tested: 5 ug/mL) (Peptide_036); no binding (tested: 5 ug/mL) (Peptide_061). B1: no binding (tested: 5 ug/mL) (Peptide_008); no binding (tested: 5 ug/mL) (Peptide_009); binds (Peptide_052). B1: no binding (tested: 5 ug/mL) (Peptide_037); no binding (tested: 5 ug/mL) (Peptide_047); no binding (tested: 5 ug/mL) (Peptide_058). B1: no binding (tested: 5 ug/mL) (Peptide_086); no binding (tested: 5 ug/mL) (Peptide_038); no binding (tested: 5 ug/mL) (Peptide_020). B1: no binding (tested: 5 ug/mL) (Peptide_072); no binding (tested: 5 ug/mL) (Peptide_074); no binding (tested: 5 ug/mL) (Peptide_059). B1: no binding (tested: 5 ug/mL) (Peptide_063); no binding (tested: 5 ug/mL) (Peptide_066); no binding (tested: 5 ug/mL) (Peptide_067). B1: no binding (tested: 5 ug/mL) (Peptide_069); no binding (tested: 5 ug/mL) (Peptide_075); no binding (tested: 5 ug/mL) (Peptide_034). B1: no binding (tested: 5 ug/mL) (Peptide_060); no binding (tested: 5 ug/mL) (Peptide_055); no binding (tested: 5 ug/mL) (Peptide_083). B1: no binding (tested: 5 ug/mL) (Peptide_016); no binding (tested: 5 ug/mL) (Peptide_033); no binding (tested: 5 ug/mL) (Peptide_053). B1: no binding (tested: 5 ug/mL) (Peptide_078); no binding (tested: 5 ug/mL) (Peptide_018); no binding (tested: 5 ug/mL) (Peptide_079).

B2: chimeric IgG clone 1A5 (antibody, V domains shown)
VH: EVQLQQSGAELVRPGASVKLSCTASGFNIKDSLIHWVKQRPEQGLEWIGWIDPEDGETKYAPKFQDKATKTADTSSNTAYLQLSSLTSEDTAIYYCASGEWDYWGQGTSVTVSS
VL: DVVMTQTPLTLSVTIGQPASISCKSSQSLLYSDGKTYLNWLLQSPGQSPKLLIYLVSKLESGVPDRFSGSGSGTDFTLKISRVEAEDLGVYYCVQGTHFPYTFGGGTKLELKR
notes: as for B1
B2: no binding (tested: 5 ug/mL) (Peptide_014); no binding (tested: 5 ug/mL) (Peptide_031); no binding (tested: 5 ug/mL) (Peptide_028). B2: no binding (tested: 5 ug/mL) (Peptide_080); no binding (tested: 5 ug/mL) (Peptide_036); no binding (tested: 5 ug/mL) (Peptide_061). B2: no binding (tested: 5 ug/mL) (Peptide_008); no binding (tested: 5 ug/mL) (Peptide_009); binds (Peptide_052). B2: no binding (tested: 5 ug/mL) (Peptide_037); no binding (tested: 5 ug/mL) (Peptide_047); no binding (tested: 5 ug/mL) (Peptide_058). B2: no binding (tested: 5 ug/mL) (Peptide_086); no binding (tested: 5 ug/mL) (Peptide_038); no binding (tested: 5 ug/mL) (Peptide_020). B2: no binding (tested: 5 ug/mL) (Peptide_072); no binding (tested: 5 ug/mL) (Peptide_074); no binding (tested: 5 ug/mL) (Peptide_059). B2: no binding (tested: 5 ug/mL) (Peptide_063); no binding (tested: 5 ug/mL) (Peptide_066); no binding (tested: 5 ug/mL) (Peptide_067). B2: no binding (tested: 5 ug/mL) (Peptide_069); no binding (tested: 5 ug/mL) (Peptide_075); no binding (tested: 5 ug/mL) (Peptide_034). B2: no binding (tested: 5 ug/mL) (Peptide_060); no binding (tested: 5 ug/mL) (Peptide_055); no binding (tested: 5 ug/mL) (Peptide_083). B2: no binding (tested: 5 ug/mL) (Peptide_016); no binding (tested: 5 ug/mL) (Peptide_033); no binding (tested: 5 ug/mL) (Peptide_053). B2: no binding (tested: 5 ug/mL) (Peptide_078); no binding (tested: 5 ug/mL) (Peptide_018); no binding (tested: 5 ug/mL) (Peptide_079).

Source: US20200216522A1 (DENALI THERAPEUTICS, published 2020)
